This note sets out measurements from the supplement of paper PMC9170038.

The subject of this data set is MS2 coat protein. In words: apparent KD of MS2 coat protein; designed switch direction (-1 OFF switch, 1 ON switch): 1; higher = weaker reporter binding. In a few lines:
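Designed RNA switches with common flanks were made on Illumina chips by stalled E. coli RNA polymerase. Titration with SNAP-549-labelled MS2 coat protein doubled from 0.7 or 1.5 nM up to 3 µM. Apparent KD is each design's median over clusters after curve-fitting normalised fluorescence.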

The mark [1] stands for this setting: input ligand: microRNA oligo, concentration not stated.
The mark [2] stands for this setting: Eterna round: R95, input ligand: microRNA oligo, concentration not stated.
The mark [3] stands for this setting: Eterna round: R95, input ligand: FMN 200 uM.
The mark [4] stands for this setting: Eterna round: R95, input ligand: none.

Consider “UGGCUGGUGCUAGGAUAUGCAUGAGGCCUCCUCGUAGAAGGAGCACGACAUGAGGAUCACCCAUGUGGCCGUCCGUAGACGGCU [salish99_SSNG1_r04_013] (Eterna round: R96, puzzle: Same State NG 1)”, for which the “apparent KD of MS2 coat protein” value reads like this: (input ligand: FMN 200 uM) 62.5 nM; under setting [1], 35.9 nM; (input ligand: none) 61.2 nM.

Consider “CACCAGAGAGCAGGAUAUGGGCCACGGCCUAAGGGCUGUGAACUCACAUGAGGAUCACCCAUGUCCCAGAAGGGCUCCUGGCUA [Getiised] (Eterna round: R96, puzzle: Same State NG 2)”, for which the “apparent KD of MS2 coat protein” value runs as follows: (input ligand: FMN 200 uM) 98.3 nM; under setting [1], 602 nM; (input ligand: none) 842 nM.

“GAGUAGUUGGGAGGAUAUCGAUUGUUAUAGAAUCGAGAAGGUUCUAACAUGAGGAUCACCCAUGUAGGACUAUUCCUGUGUAUC [Parity 74 - Jieux - Same State NG 1] (Eterna round: R96, puzzle: Same State NG 1)”: the “apparent KD of MS2 coat protein” value under setting [1] was found to be 37.3 nM.

Turning to “GUGGUGAAUUAAGGAUAUCGAGUCUAGAUGUUAAACAUGAGGAUCACCCAUGUGGGUUGCGGUGUCGAGAAGGUGAUUUACGGG [salish99_SSNG2_r04_509] (Eterna round: R96, puzzle: Same State NG 2)”, the “apparent KD of MS2 coat protein” value (input ligand: FMN 200 uM) was 82.2 nM, the “apparent KD of MS2 coat protein” value under setting [1] was 79.6 nM and the “apparent KD of MS2 coat protein” value (input ligand: none) turned out to be 104 nM.

Consider “GGAGGACAUGAGGAUCACCCAUGUGGAUGAACGCUAGGAUAUGCGUGCAGGAAGAGUGGAGCAGAAGGAGUGGGUU [JR_SS1_Sub046] (puzzle: Same State 1)”, for which the “apparent KD of MS2 coat protein” value under setting [2] came to 21.7 nM.

As to “UUUAUACAUGAGGAUCACCCAUGUCAACGUAGUCGAGGAUAUGGGCAGCCGUGAGGCGUACUAGAAGGCGAAGAGG [JL-ss1-3.08 ViennaUCT mod] (puzzle: Same State 1)”, the “apparent KD of MS2 coat protein” value is 49.7 nM under setting [3], 38.8 nM under setting [2] and 118 nM under setting [4].

Take “GGUCCCUACGCACAGGAUAUUCUUUUGGCAACAUGAGGAUCACCCAUGUGUGCCGAUCAUGGUUAGAAGAAGGGUGGUAGGGACC [Usisus] (puzzle: Same State 2)”: the “apparent KD of MS2 coat protein” value under setting [3] was found to be 9.87 nM, the “apparent KD of MS2 coat protein” value under setting [2] turned out to be 12.9 nM and the “apparent KD of MS2 coat protein” value under setting [4] is 13.5 nM.

“GUGGUCAGACAUGAGGAUCACCCAUGUGGAAUAAAUAACAGACAGGAUAUUAAAUAUAGGAUAUAUAAGAAGGGUCGAUUGGUG (Eterna round: R96, puzzle: Same State NG 3)”: the “apparent KD of MS2 coat protein” value under setting [1] worked out at 78.5 nM.

For “GCUCGGCUGAUGGCCUACAUGAGGAUCACCCAUGUGAGUGGGCAGGAUAUCUAGAUUAAGGAUGUAGAGAAGGGCCUGCCGAGC [SameState NG3 #37] (Eterna round: R96, puzzle: Same State NG 3)”, the “apparent KD of MS2 coat protein” value came to 708 nM (input ligand: FMN 200 uM), 131 nM under setting [1] and 496 nM (input ligand: none).

For the sequence “GCUAGGAAUUAAGCCAACAUGAGGAUCACCCAUGUAUGUUGGUAGGAUAUCGUUUGCAAAGCAAACGAGAAGGGCUAACCUAGC [Mat - Same State NG 3 - JL Mod - D72] (Eterna round: R96, puzzle: Same State NG 3)”, the “apparent KD of MS2 coat protein” value by setting is: (input ligand: FMN 200 uM) 80.9 nM; under setting [1], 55.8 nM; (input ligand: none) 85.3 nM.

With “GUUACAUGAGGAUCACCCAUGUAUGUGUGGGAGUAAGUGUCUUAGGAUAUCUAUCAUUUAAGUUAAGAGAAGGAAGAUUGUUGU [JMF's solution 95] (Eterna round: R96, puzzle: Same State NG 3)”, the “apparent KD of MS2 coat protein” value (input ligand: FMN 200 uM) amounted to 135 nM, the “apparent KD of MS2 coat protein” value under setting [1] came out at 80.4 nM and the “apparent KD of MS2 coat protein” value (input ligand: none) was found to be 108 nM.

Take “GGAGCCGGCACUGAGGAUAUUCAUAUUAAAACAUGAGGAUCACCCAUGUAGGCCAGAAGGCCUUGGGAGAAGGCAGGUCGGCUCG [salish99_ss2_r3_075] (Eterna round: R96, puzzle: Same State 2)”: the “apparent KD of MS2 coat protein” value reads like this: (input ligand: FMN 200 uM) 20 nM; under setting [1], 188 nM; (input ligand: none) 283 nM.

In the case of “GGUCCCUACGCACAGGAUAUUCUUUUGGCAACAUGAGGAUCACCCAUGUGUGCCGAUCAUGGUUAGAAGAAGGGUGGUAGGGACG [Cesovexe] (puzzle: Same State 2)”, the “apparent KD of MS2 coat protein” value runs as follows: under setting [3], 12 nM; under setting [2], 11.4 nM; under setting [4], 16.8 nM.

Turning to “UGUUGUAUUACAGGAUAUCUAUUAUUUUUAAUUAGAGAAGGGUAUUCACAUGAGGAUCACCCAUGUAUAUACGAGGAAGUUGUG [JMF's solution 25] (Eterna round: R96, puzzle: Same State NG 1)”, the “apparent KD of MS2 coat protein” value under setting [1] is 27.5 nM.

As to “GGAGCCGGCACUGAGGAUAUUCAUAUUAAAACAUGAGGAUCACCCAUGUAGGCCAGAAGGCCUUGGGAGAAGGCAGGCCGGCCCG [Bibimoar - 1] (puzzle: Same State 2)”, the “apparent KD of MS2 coat protein” value reads like this: under setting [3], 18.8 nM; under setting [2], 177 nM; under setting [4], 276 nM.

In the case of “AGUCCAGCCUGAGCUGGACAAAAGCAUGUACAUGAGGAUCACCCAUGUCAUGUACAAGCUUUAUGCUCGUCUUAAAA [Mat - hsa-mir-208a - Mod of JL - D15] (puzzle: Sensor for hsa-mir-208a)”, the “apparent KD of MS2 coat protein” value by setting is: under setting [3], 224 nM; under setting [2], 15.6 nM; under setting [4], 298 nM.

As for “AUUAAACAUGAGGAUCACCCAUGUCAACAAAGUCGAGGAUAUGGGCAAAUUAAAUAAGAACCAGAAGGCGAAUAAU [salish99_ss1_r3_060] (puzzle: Same State 1)”, the “apparent KD of MS2 coat protein” value is, setting by setting: under setting [3], 35.9 nM; under setting [2], 189 nM; under setting [4], 269 nM.

Consider “CAUCGUUUGAUAGGAUAUCGCUAUACAUGAGGAUCACCCAUGUUUACCACGCUGGUUUUUCAUACCGAGAAGGAUUCUGAUGAC [salish99_SSNG02_r04_014] (Eterna round: R96, puzzle: Same State NG 2)”, for which the “apparent KD of MS2 coat protein” value was found to be 27.3 nM (input ligand: FMN 200 uM), 27.7 nM under setting [1] and 30.2 nM (input ligand: none).

As to “UUAAUGAUGUAAGGAUAUACAUGAGGAUUUCUCGUAGAAGGUACAAGACAUGAGGAUCACCCAUGUGUCGCUCGAAAGAGCGUA [Mat - Same State NG 1 - JL mod - D20] (Eterna round: R96, puzzle: Same State NG 1)”, the “apparent KD of MS2 coat protein” value stood at 282 nM (input ligand: FMN 200 uM), 113 nM under setting [1] and 316 nM (input ligand: none).

For “GUGGUCAGACAUGAGGAUCACCCAUGUGGAAUAAAUAACGGUGAGGAUAUUGAAUAUAGGAUAUACGAGAAGGCAUGAUUGGUG (Eterna round: R96, puzzle: Same State NG 3)”, the “apparent KD of MS2 coat protein” value is, setting by setting: (input ligand: FMN 200 uM) 208 nM; under setting [1], 114 nM; (input ligand: none) 123 nM.

As to “AGAGAACAUGAGGAUCACCCAUGUGGGAGAUGCAUAGGAUAUAGGAGAGAGAGCGAGGAACUAGAAGGAUGAUGGA [JR_SS1_Sub081] (puzzle: Same State 1)”, the “apparent KD of MS2 coat protein” value turned out to be 79.7 nM under setting [3], 63.7 nM under setting [2] and 191 nM under setting [4].

For “AUUGGGUAACGAGGAUAUCGUUUUUGUUUUUUUCGAGAAGGCGUUAUAGUUUCUUUCUAUUGUUACAUGAGGAUCACCCAUGUU [JR_SSNG1_Sub053] (Eterna round: R96, puzzle: Same State NG 1)”, the “apparent KD of MS2 coat protein” value was determined as 15.8 nM (input ligand: FMN 200 uM), 16.2 nM under setting [1] and 16.5 nM (input ligand: none).

For the sequence “CGCAGGCACGUAGGAUAUCUAGCGUGGGAGGCUAGAGAAGGAUGGAAUAACAUGAGGAUCACCCAUGUCGCCUCGCGGAAAUAA [Diorverire] (Eterna round: R96, puzzle: Same State NG 1)”, the “apparent KD of MS2 coat protein” value reads like this: (input ligand: FMN 200 uM) 15.5 nM; under setting [1], 17.4 nM; (input ligand: none) 32.8 nM.

Regarding “GGUCCCUACGCACAGGAUAUUCUUUUGGCAACAUGAGGAUCACCCAUGUGUGCCGAUCAUGGUUAGAAGAAGGGUGGUAGGGACC [Usisus] (Eterna round: R96, puzzle: Same State 2)”, the “apparent KD of MS2 coat protein” value (input ligand: FMN 200 uM) was 10 nM, the “apparent KD of MS2 coat protein” value under setting [1] came out at 10.5 nM and the “apparent KD of MS2 coat protein” value (input ligand: none) turned out to be 19.8 nM.

As for “UGCCUGAGUCGAGGAUAUUAUGGAUCCUCUAAUACAUGAGGAUCACCCAUGUAAUUAAUUAUACAUGAGAAGGCGACUCAGGCA [SSNG2/12-A2] (Eterna round: R96, puzzle: Same State NG 2)”, the “apparent KD of MS2 coat protein” value turned out to be 278 nM (input ligand: FMN 200 uM), 6.26 nM under setting [1] and 66.2 nM (input ligand: none).

Regarding “AGCCGAGACACAGGAUAUAGAUAUCUACAUGAGGAUCACCCAUGUAGCAACACGUGGUAGUGAUUCUAGAAGGGUGCUCGGCGC [Omei SS(NG)2 Cv8] (Eterna round: R96, puzzle: Same State NG 2)”, the “apparent KD of MS2 coat protein” value (input ligand: FMN 200 uM) was determined as 25.3 nM, the “apparent KD of MS2 coat protein” value under setting [1] worked out at 170 nM and the “apparent KD of MS2 coat protein” value (input ligand: none) is 189 nM.

For the sequence “UGACAAGUGGUAGGAUAUCCAUGACAUGAGGAUCACCCAUGUUCUUUUGGUGUCCGUCACGGACGGGAGAAGGACCAACAUGAG [Same State NG2 S3] (Eterna round: R96, puzzle: Same State NG 2)”, the “apparent KD of MS2 coat protein” value (input ligand: FMN 200 uM) amounted to 10.1 nM, the “apparent KD of MS2 coat protein” value under setting [1] was 9.45 nM and the “apparent KD of MS2 coat protein” value (input ligand: none) worked out at 12.9 nM.

For “GCUACAUCGAGCGAGGAUAUGCGGCGUAUAACAUGAGGAUCACCCAUGUCCUUCGAAUCGAGUACGCAGAAGGCGCUACGGUAGC [Big Heel] (puzzle: Same State 2)”, the “apparent KD of MS2 coat protein” value by setting is: under setting [3], 77.6 nM; under setting [2], 277 nM; under setting [4], 551 nM.
